This series can be described thus: label from the status in PepcDB records.

As for “MTKPQGAVAEKATPAVPKPQKVRVIVEFNKESILDYATEQKKTVAQLNQADVEKKLQSIKQEQDKVLKNIEKSVHFDSSKVKRYDAIINGVALDIQAQEIEKLKTIADVRRVYVSQEYVQTKPLLSSSGQLIGLPEVWNNSQYKGEGTVVAVIDSGVDFKHQALKIKEPNRAKYNKTSIEKLIHEKNLKGKFYSEKVPYGYNYYDYNDNLKDSYGVMHGMHVTGIVGANDDNQKLYGVAPNAQILAMKVFSDDQQNPTTFTDVWLKALDDAILLKADVVNMSLGTPAGFVHEGKDYPELEVIARACKAGIVIAVAAGNEGNITDGNTYGVKPLAENYDTALIANPALDDNTLAVASMENLKKHAHVLKFKDKKSGTEVTEVINLHVAPNASKTIIGLAVDLGAGAPSELSKHFDLSGKIAMLEIPEDNKSNGFLEKVQAITKLNPAAILLYNNAKVKDDLGSQLLVESEAAKFNIARITRSTYNNIKNNSNKIITILTERQAIDNSLAGQLSSYSSWGPTPDLRLKPEITAPGGHIFSTVEDNQYADKSGTSMAAPQVAGAAAVLKQYITDKKIPVDNAADFIKLLLMNTAQPIINKQSKDGKTPYFVRQQGSGAMNLAKALVTTVVATVTGTNDNNADGKLELRELKEKKFKARILLRNFGKTNKTYIISSEAIADPVDEKGFRTQNSEHLVSKKADAVTRKVTVEAGKTLAVDLDVDYSDAEALTRNNFLEGYLNLKDTEGVADLHLPFLGFYGSWTEQKAIDAFEGISEIGNGDKKRRVQFYVNKETNKTSSTFTTNGMLSLPIYNNTVFFSPNSPFYDKAGVRIAALRNMEYVQYSIIDPDTNKEVRVLGRSHDVRKLYRLDYRNSFAMMPDSIWDGKIKD”, the protein production entry is “failed”.

For the sequence “MTKQKKLLPVASLLLGAAIWGVAWYPYRLLEQAGMRGELSTTLAYSIALLIGLILFRRQLRISEILNPAAGILFWISLSAGWTGIAYVLGIIHGEVMRVLLLFYLAPLWTILFSRILLQERLSRQGYAIILLSLAGALLLLWQPGSKLPLLASYGDWMGLSGGLAFALTNVLIRKDQQHGIQLKLLAVLSGTALTGFAATLLMESISDITHLHTHAWLILAGIGGLVFFLCILLQYGMTHIPANQAIVIMLFELVVAAIAAHFLTNEYLTGRDWAGGLMIASASLFSARVNRD”, the protein production result is “failed”. Under “MTKSKIIEIGPLVPAFEEEKIVILFGPTATNELREISVIHEFEAAPQSALSKGNTLQIGDQVYIIEEVGTEANKNLEELGHISIYFRSGQNEVLPGAIVVSPEVFPTLAIGDTIQF” stands “failed”. Under “MTKSQIMDLSNFYQDTDYPSGRLIALLILSLGLTPAEIANLKKADFDTTFNILSIEKSQMKRILKLPEDLLPFLLESLEEDGDLVFEHNGKPYSRQWFFNQLTDFLNEKNEQQLTAQLLREQFILKQKENGKTMTELSRLLGLKTPITLERYYRLEHHHHHH” stands “not failed”. Under “MTKSTPHPSSIIKAEQQSLLYLHIAVFLFGGTALFSKLIGLPALDITVYRTGIAALALFILLTLQKKQISLSSMKDYGIAILLGCVVGLHWVTYFTGMQMAGVTVGMIAFFTYPVITVFIEPFFNRTVPKMKDMITAFVVIIGIVLLIPEISFGNQITLGIVTGIISAVFFALRNILHKNYFSHYSGPHTMLYQTLVACLMLCLFVEVPPMQVTESDWLLLLLVGVVFTATPHALFASSLRSLSATTAGLISCLQPLYGSILAIILLHERPDILTIIGGLLVVSAAIFETWSVSRGRR” stands “failed”; under “MTKTWEQLSAIQPIGVKMLMNSIAKERISHAYLLEGEKGTGKFATAIQMAKSFLCSQRNRVEPCHVCTNCKRIDSGNHPNLHIVKPDGLSIKKQQIHDLQEEFSKTGLEANKKVYIIEHADRMTANAANALLKFLEEPSSDTTAILLTEQSHQILNTILSRCQVVTFRPLPTESLIRRLQDEGITVSLSTLAAQLTNSFDEALTLCNDEWFAQARALVIKLCEALEKDKASIFFVQEKWGKHFGEKEQLQQGLDMLLLIYKDLLYVQLGEEDRLVFREQKEMFESFSYAQKRIVSALFNILEAKNRINANVNAQLVFEQLVLRLQEG”, “failed”. For “MTKYALVGDVGGTNARLALCDIASGEISQAKTYSGLDYPSLEAVIRVYLEEHKVEVKDGCIAIACPITGDWVAMTNHTWAFSIAEMKKNLGFSHLEIINDFTAVSMAIPMLKKEHLIQFGGAEPVEGKPIAVYGAGTGLGVAHLVHVDKRWVSLPGEGGHVDFAPNSEEEAIILEILRAEIGHVSAERVLSGPGLVNLYRAIVKADNRLPENLKPKDITERALADSCTDCRRALSLFCVIMGRFGGNLALNLGTFGGVFIAGGIVPRFLEFFKASGFRAAFEDKGRFKEYVHDIPVYLIVHDNPGLLGSGAHLRQTLGHIL”, the protein production result is given as “not failed”. Under “MTLDAAPHLHPAVLSPRPQPGRHRRDLHQSSRAFVLLTCIVATLALMLSLPAGLQAAEATVIVPFGGGILRDDAQTVAAAAARIEALRLSTASLGRDSAALFSAETPARLLSLTAATFEAHTTATSVVGYPPEVEVAVNIRTTPRGGDAATALRAALRAPEKLELREGILLHTRENLLEARQLALDAARHRQKAGTESESPYDRRFAALARTLRSLDTLERALSYLDGVWRHPIILAADMRQVVEASPEMPLGWTFLGEALLQLDRPQDAVEALDRALALPDAPVRARLARGIANLRLDLTALAVDDLSRVLREAPRLAPAWRARGAARMMRREYGPMCEDFIQACNLGDCEGLASARDAGHCLAPARPQTVKADD” stands “failed”; under “MTLFDGTPFEWAPGRIEVRARRECGASRKSLVVAAGVSYLARMIFSFDAFVTNALFDRSGRAMFALGDGTVRLQTDEGFVTVEAHGGPLGGAVLAAAVHPSGAGIVTGGDDGRVVWSRIEGGEVVATLIAEVKNKWIEHVAASAASGLIAFTVGKEVHVRDAADPAFARTFPHEKTVSGLAFEPKGRRLASATYGGAYLWYARIADQKPTVLKWAGSHIAVEFSPDGKFLISSMQENQLHGWRLSDGKDMRMGGYPSKIKSVAFFDKGNLLATAGASGAVIWPFAGANGPMGKEAAEIGFSRDSMVVRVAGIDPQPVCIAGQDSGKIWAAHMRNGRIETLKAEKGAPISALSVSADGKRLAWGDESGEAGVLEIPDLSGPRQFVG”, “failed”. Under “MTLGLKDLYYAVCTEADGAESYGTPKKMAEAMSADLSVKTADGSLYADDTLSESVTEFASGTLKLGIKDLTPEVLAELLGQAVDKNSVVWAGKEDEPPYVAVGFRAKKTGGKYRYVWLLKAKFKVPSEKYETKGESIKFNTPDIEASFTTRKKDNLWKADFVGTEESAAAKTWFTAVPEKAAAMESVLEHHHHHH” stands “not failed”.

In the case of “MTLHEHTDEETAEHNLPSKSSGSTRRLALVAVVNFFGFVIELAGGLLFGSVALISDALHMLFDMLAYAMAFGASYTAERFEGGEAWSYGLHRLEPVAAFLNGVLLLPMVGYIVWESYQRFLEPVAINPELTLIIATGGLLVNIGSVYVLQGGEMSLNERGAFYHLLGDAGGSVAVIVSTAAVAVFDLPIADPVAAVLIGLLVLASAGNVLRESTSILLERSPVSSEELRDELTTLDGVDQIEDLHVWQVCSQLTVATVRLTDTSTTLEEQRRIQSRVHDYLTNRGIDHATVELVGRTDPDTDPVGTTNHSH”, the protein production entry is on record as “failed”. Under “MTLISRILGLVRDVVIASLLGAGAMSDVFLFANRIPNFLRRLFAEGAFSKAFVPVLAEYNADNDLDKTREFIAKVSGTLGLLVTVVTLVAMLISPIIAALFGTGWFIDWFNDGPDAQKFTQASLLLKITFPYLWFITFIALSGAVLNTIGKFGVMAFSPVLLNVAMISMALFGADYFEQPDIALAWGIFLGGLLQFLFQIPFMIKERLLVKPKWAWKDEGVTKVRRLMIPALFGVSVTQINLLLNQVIASFLVTGSITWLYYSDRLIEFPLGLFGIAISTVVLPNLSRITKKKALNEEQRAIAFKQTLDWGVRMVVALGIPAMVGIAILAQPLIMTIFMRGKFVLADVIATSHALWIMCLGLNSYMLISVLANGFYARQNTKTPVKIGIIATIANICFGVLAIPFGYLGLAMASALSAAVNASLLYYNLVKEQAYCLSKKTVIFILKVAISACAMGVLVSYFSPTLTDWYAMKMWLKVHWLVWLISLAAISYFAVLMVLGIRKQDFRA” stands “failed”; under “MTLKLIGAGFGRTGTWSTFAALNRLGLPCYHMQEVIMNKANKGHLDFWRKVANSPPGSQHDWNRVFANYTATVDNPGCCVWKELLAAYPDAKVLLTLHPRGAEAWYESTIDTIYFTENVWQFKILEWLTPFGWKFGDMSRKLIWGRTLDGVMNDRAKAVARYNTYVEQVKAAVPPHKLLVYKVTEGWAPLCDFLGVALPNEPFPNLNDRETIKKIIRDIIKGSYIMLGLAIAAIVAVVAALWWWLG”, “failed”.

Consider “MTLLRDHDLARAFDHASHTYDGLTALNPGYRTGLLRSARRLALPADGAGLHLLDLGCGTGASTRALLRAAPRARITAVDASAGMLRRALVKPWPARVRFLHLTAEEFATTREDEGPFDAVFAAYLFRNVTDPDAVLRAVRQLLRPGGRFAAHEYSLSGSPGHRALWSAVCRGVVIPAGTLTGDRTLYRHLRRSVVAFDTAPEFAARLTRAGLTSVRVAPVAGWQTGIVHTFLARNGGPTTTEERVL”, for which the protein production entry is “failed”. On to “MTLSFFRPRARKVTAAVLLMTWLAPVSPLALAQPASVPAAPAGAAAAEQVQSNLNRSVQIGRQSPYLQKDATIIDAPTYELPDMGDPSTAALSPEMERRLGDRVMRQIRRDPDYVPDPLLSDYLNDIGYRLIEAARRQHVAGSTSASSFELFAVRDPGINAFALPGGYIGVNTGTLVATESESELASVLGHEIGHVLQRHIARGIDKSGESMWIALASILLAGLAATKSGDAAQALAVGGQAAAVSNQLAFSRGAEREADRVGFTLLTGAGYNPDGMPDFFRRLQRVSSIADTGAVPGYARTHPLTGERIADMEDRARGLPHPRQPQRPAFGFAKARARVLQETSTSAYLDVRNAMRSQLASAPDAPAEKRAALWYGIAVAEQLAGQLDPAEQALLEARRLYGNIPGLTSGSPSLDVTAIELARARNRVPEALTMARAALAAYPLSRAVGITYAQTLLAAGRAGDAIPYLQDKAREDTAQPIWWDMLARAYADQGKRVEQHRALAEKYARDGAWGAAVEQLKLARDAGDADFYTLSEVDARLHQMERQYREEKQEEKALPK”, for which the protein production entry is “failed”. With “MTLSKQLKTYITERFKLNYQDTWSCETVDAVAEDVLPEKYIKNSPLEHKILNTFTYYNDELHEISIYPFLCYLDKELIAIGYLDNFDLDFIFLNDTHQIIIDERYLLQKGGELEHHHHHH”, the protein production entry is given as “failed”. With “MTLTMGFIGFGKSANRYHLPYVNTRKNIKVKTIFARQINEELAAPYEEKGVSFTTNLDELLNDKEIQVVTVCTPAHTHYELAKKVILAGKSVIVEKPFCDTVEHAKELLALGREKGVVVMPYQNRRFDGDFLAVKQVVEQGFLGDIVEVESHIDYFRPGSINHEGPKEEGSFYSLGIHTMDRMISLFGRPDTVTYDIRNNEVDGAVDNYFDVGLHYGNQLKIKLKTNHVVAKDYPRFIVHGTNGSFIKYGEDQQENDLKAGIMPESAGFGEDSPMYYGIAKYRNANGDWIEKQIKTPLGDYGRFYDAAYETIVNGAPKLVKDEEAVTNIEILENGFAAPSPSVYKLEALNLNE”, the protein production result is given as “failed”. Under “MTLTPEAEIALFLRRLKWAAVIVGVLWVVSLLAPILTPFVLALLLAWLGDPLVDRIERAGRSRNVAVVLVFVLATLLFVLALMILVPMIERQIMTLIDALPQMRNWAIGTAIPWLEAKTGMQLMAWLDPERLIDWIRSHWEQAGGAAKTLFGYVSRSGFAMVTWVINLALLPILAFYFLRDWDRLVERVAAVIPRAYIGTASRLAQESNDVLGGFIRGQFLVMLALGAIYATGMSIIGLNLGLLIGIIAGLISFIPYLGATTGIVLALLAAIVQAQGLDLKLLIGVGVVFTVGQLLESYVLTPRIVGDKIGLHPVAVIFAVMAGGQLFGFLGMLLALPVAAVANVLLRYAHEQYTRSDLYAGERAGIVLRSTPERSVIIDPSKDADRL” stands “failed”.

These data come from a protein production outcome set (Wang et al. 2014).
